Data published in US20250002610A1 (Genmab, published 2025).

T1: cynomolgus monkey DR4 with death domain deletion on ExpiCHO-S cells (cynomolgus monkey (Macaca fascicularis))
T1 construct: also called cynomolgus DR4
T1 chain: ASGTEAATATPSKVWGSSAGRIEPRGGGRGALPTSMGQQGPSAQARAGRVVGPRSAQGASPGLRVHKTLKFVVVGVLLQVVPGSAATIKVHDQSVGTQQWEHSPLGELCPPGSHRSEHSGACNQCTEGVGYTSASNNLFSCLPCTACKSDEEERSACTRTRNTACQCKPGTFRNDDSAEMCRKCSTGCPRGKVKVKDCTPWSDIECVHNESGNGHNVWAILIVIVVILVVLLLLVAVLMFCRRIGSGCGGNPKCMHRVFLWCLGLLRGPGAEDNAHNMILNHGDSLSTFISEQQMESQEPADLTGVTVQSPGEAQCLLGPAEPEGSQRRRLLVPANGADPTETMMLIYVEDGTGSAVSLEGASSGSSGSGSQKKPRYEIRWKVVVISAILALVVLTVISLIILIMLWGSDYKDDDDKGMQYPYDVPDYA

T2: human FAPα (Fibroblast activation protein alpha), cell surface expressed (human, UniProt Q12884 1-760)
T2 construct: Endogenous on human lung fibroblasts and CAFs
T2 sequence: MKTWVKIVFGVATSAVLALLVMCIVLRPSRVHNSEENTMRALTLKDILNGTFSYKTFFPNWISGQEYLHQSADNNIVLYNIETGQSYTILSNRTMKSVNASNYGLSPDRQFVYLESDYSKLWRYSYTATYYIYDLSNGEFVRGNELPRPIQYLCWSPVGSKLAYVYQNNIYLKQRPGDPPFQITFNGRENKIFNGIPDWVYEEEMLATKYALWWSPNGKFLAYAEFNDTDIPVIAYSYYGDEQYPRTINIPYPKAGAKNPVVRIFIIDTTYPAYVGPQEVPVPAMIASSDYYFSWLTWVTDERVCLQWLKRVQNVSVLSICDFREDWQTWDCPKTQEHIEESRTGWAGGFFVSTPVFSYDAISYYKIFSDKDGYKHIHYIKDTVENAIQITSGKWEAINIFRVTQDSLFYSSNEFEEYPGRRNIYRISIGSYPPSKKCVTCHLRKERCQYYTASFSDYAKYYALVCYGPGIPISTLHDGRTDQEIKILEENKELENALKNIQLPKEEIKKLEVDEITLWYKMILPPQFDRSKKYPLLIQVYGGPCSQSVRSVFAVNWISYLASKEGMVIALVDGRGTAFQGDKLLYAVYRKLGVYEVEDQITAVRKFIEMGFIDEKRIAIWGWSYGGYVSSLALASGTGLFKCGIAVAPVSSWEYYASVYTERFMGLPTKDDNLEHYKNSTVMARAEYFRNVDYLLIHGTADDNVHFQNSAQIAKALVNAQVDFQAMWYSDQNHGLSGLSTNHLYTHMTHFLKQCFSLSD


What was measured:
[1] = target: T3, human DR4 with death domain deletion on ExpiCHO-S cells (human); assay: flow cytometry, ExpiCHO-S cells expressing human DR4, n = 1
Protocol: (§1) Binding of BisG1-FAPα-FERL/DR4-FERR, BisG1-DR4-FEAL/b12-FEAR and IgG1-DR4-FERR to DR4 of various species commonly used for nonclinical toxicology studies was assessed by flow cytometry using ExpiCHO-S cells transiently expressing DR4 from different animal species. In contrast to other species, rodents only express one DR which has highest homology with human DR5. Therefore, ExpiCHO-S cells transiently expressing rat and mouse DR protein were used instead. All DR constructs lack the intracellular DD to avoid apoptosis of transfected cells upon DR(4) activation. IgG1-b12 was used as negative control.

[2] = target: T3, human DR4 with death domain deletion on …; assay: flow cytometry, ExpiCHO-S cells expressing human DR4, average ± SEM
[3] = target: T3, human DR4 with death domain deletion on …; assay: flow cytometry, ExpiCHO-S cells expressing human DR4, n = 2
Protocol: as §1

[4] = target: T1, cynomolgus monkey DR4 with death domain …; assay: flow cytometry on ExpiCHO-S cells transiently expressing cynomolgus monkey DR4 (death domain deleted), gMFI PE
[5] = target: T2, human FAPα (Fibroblast activation …); assay: flow cytometry, human lung fibroblasts, n = 1
Protocol: (§2) Human lung fibroblasts and CAFs (50,000 cells/well) were seeded in 96-Well round bottom plates (Greiner Bio-one, Cat #650101). Antibody dilutions were prepared using fluorescence-activated cell sorting (FACS) buffer, consisting of phosphate buffer saline (PBS, Lonza, Cat #BE17-517Q)+1% Bovine Serum Albumin (BSA, Roche, Cat #10735086001)+0.02% Sodium Azide (Bio-World, Cat #41920044-3). Plates were centrifuged, supernatant was removed, cells were resuspended in 50 μL of human Fc Block (BD, Cat #564220, diluted 1:100 in FACS buffer) and 50 μL of viability stain TO-PRO-3 Iodide (Thermo Fisher, Cat #T3605, diluted 1: 25,000 in FACS buffer), and incubated for 15 min at 4° C. Plates were washed three times with FACS buffer. Plates were centrifuged, supernatant was removed, cells were resuspended in 50 μL of antibody dilutions (concentration range 90-0.0005 μg/mL, three-fold dilution steps using FACS buffer) of BisG1-FAPα-FERL/DR4-FERR, BisG1-FAPα-FERL/b12-FERR, BisG1-b12-FERL/b12-FERR (top six concentrations only for CAFs culture) or IgG1-FAPα-FERL (top four concentrations only for CAFs culture) and incubated for 30 min at 4° C. Cells were washed three times with FACS buffer and resuspended in 50 μL of Fluorescein isothiocyanate (FITC)-labeled polyclonal antibody goat anti-mouse IgG1 (Jackson Immuno Research, Cat #109-096-097, diluted 1:100 in FACS buffer). After 30 min incubation at 4° C., cells were washed twice with FACS buffer and resuspended in FACS buffer. Antibody binding to viable cells (TO-PRO-3 negative) was analyzed by flow cytometry on a FACSCelesta™ (BD biosciences) and data were processed using FlowJo_v10.8.1 (FlowJo LLC). Geomean fluorescence intensity, gMFI, was determined and visualized using GraphPad Prism. Binding curves were analyzed using nonlinear regression analysis. The concentration (pg/mL) at which 50% of the maximal effect was observed (EC₅₀) was derived from the fitted curves.
(§3) Binding of FAPα-targeting monoclonal antibody clones, IgG1-FAPα-FEAL and IgG1-FAP5-FEAL, and bispecific antibodies carrying a binding arm derived from the two FAPα-binding clones (BisG1-FAPα-FEAL/b12-FEAR and BisG1-FAP5-FEAL/b12-FEAR) to human lung fibroblasts, which endogenously express FAPα, was compared and analyzed by flow cytometry.

[6] = target: T2, human FAPα (Fibroblast activation …); assay: flow cytometry, human lung fibroblasts, n = 2
Protocol: as §2, with “After 30 min incubation at 4° C., cells were washed twice with FACS buffer and resuspended in FACS buffer.” left out, “The concentration (pg/mL) at which 50% of the maximal effect was observed (EC₅₀) was derived from the fitted curves.” left out
as §3

Binder | EC50 [1] | EC50 [2] | EC50 [3] | EC50 (read off the curve) [4] | EC50 [5] | EC50 [6]
BisG1-DR4-FEAL/b12-FEAR (bispecific antibody, human IgG1, kappa, lambda, Fab-arm exchange of IgG1-DR4-FEAL and IgG1-b12-FEAR) heavy 1: QVQLQESGPGLVKPSGTLSLTCAVSGGSISSYSWWSWIRQPPGKGLEWIGELYHSGSTNYNPSLKSRVTISVDKSKNQFSLKLRSVTAADTAVYYCVRGVATIDYWGQGTLVTVSSASTKGPSVFPLAPSSKSTSGGTAALGCLVKDYFPEPVTVSWNSGALTSGVHTFPAVLQSSGLYSLSSVVTVPSSSLGTQTYICNVNHKPSNTKVDKRVEPKSCDKTHTCPPCPAPEFEGGPSVFLFPPKPKDTLMISRTPEVTCVVVAVSHEDPEVKFNWYVDGVEVHNAKTKPREEQYNSTYRVVSVLTVLHQDWLNGKEYKCKVSNKALPAPIEKTISKAKGQPREPQVYTLPPSREEMTKNQVSLTCLVKGFYPSDIAVEWESNGQPENNYKTTPPVLDSDGSFLLYSKLTVDKSRWQQGNVFSCSVMHEALHNHYTQKSLSLSPG light 1: QSALTQPPSASGSPGQSVTISCTGTSSDVGGYNFVSWYQQDPGKAPKLLIYEVTKRPSGVPDRFSGSKSGNTASLTVSGLQAEDEADYYCSSYAGSNNVMFGGGTKLTVLGQPKAAPSVTLFPPSSEELQANKATLVCLISDFYPGAVTVAWKADSSPVKAGVETTTPSKQSNNKYAASSYLSLTPEQWKSHRSYSCQVTHEGSTVEKTVAPTECS heavy 2: QVQLVQSGAEVKKPGASVKVSCQASGYRFSNFVIHWVRQAPGQRFEWMGWINPYNGNKEFSAKFQDRVTFTADTSANTAYMELRSLRSADTAVYYCARVGPYSWDDSPQDNYYMDVWGKGTTVIVSSASTKGPSVFPLAPSSKSTSGGTAALGCLVKDYFPEPVTVSWNSGALTSGVHTFPAVLQSSGLYSLSSVVTVPSSSLGTQTYICNVNHKPSNTKVDKRVEPKSCDKTHTCPPCPAPEFEGGPSVFLFPPKPKDTLMISRTPEVTCVVVAVSHEDPEVKFNWYVDGVEVHNAKTKPREEQYNSTYRVVSVLTVLHQDWLNGKEYKCKVSNKALPAPIEKTISKAKGQPREPQVYTLPPSREEMTKNQVSLTCLVKGFYPSDIAVEWESNGQPENNYKTTPPVLDSDGSFFLYSRLTVDKSRWQQGNVFSCSVMHEALHNHYTQKSLSLSPG light 2: EIVLTQSPGTLSLSPGERATFSCRSSHSIRSRRVAWYQHKPGQAPRLVIHGVSNRASGISDRFSGSGSGTDFTLTITRVEPEDFALYYCQVYGASSYTFGQGTKLERKRTVAAPSVFIFPPSDEQLKSGTASVVCLLNNFYPREAKVQWKVDNALQSGNSQESVTEQDSKDSTYSLSSTLTLSKADYEKHKVYACEVTHQGLSSPVTKSFNRGEC | 1.02 µg/mL | 1.12 µg/mL | 1.23 µg/mL | ~1 µg/mL | – | –
IgG1-FAP5-FEAL (antibody, Prior art clone FAP5 (US20090304718A1) with FEAL constant region) heavy: QVQLQQSGAELARPGASVNLSCLASGYTFTNNGINWLKQRTGQGLEWIGEIYPRSTNTLYNEKFKGKATLTADRSSNTAYMELRSLTSEDSAVYFCARTLTAPFAFWGQGTLVTVSSASTKGPSVFPLAPSSKSTSGGTAALGCLVKDYFPEPVTVSWNSGALTSGVHTFPAVLQSSGLYSLSSVVTVPSSSLGTQTYICNVNHKPSNTKVDKRVEPKSCDKTHTCPPCPAPEFEGGPSVFLFPPKPKDTLMISRTPEVTCVVVAVSHEDPEVKFNWYVDGVEVHNAKTKPREEQYNSTYRVVSVLTVLHQDWLNGKEYKCKVSNKALPAPIEKTISKAKGQPREPQVYTLPPSREEMTKNQVSLTCLVKGFYPSDIAVEWESNGQPENNYKTTPPVLDSDGSFLLYSKLTVDKSRWQQGNVFSCSVMHEALHNHYTQKSLSLSPG light: QIVLTQSPAIMSASPGELVTMTCSASSGVNFMHWYQQLSGTSPKRWIFDTSKLASGVPARFSGSGSGTSYSLTISSMEAEDAATYYCQQWSFNPPTFGGGTKLEIKRTVAAPSVFIFPPSDEQLKSGTASVVCLLNNFYPREAKVQWKVDNALQSGNSQESVTEQDSKDSTYSLSSTLTLSKADYEKHKVYACEVTHQGLSSPVTKSFNRGEC | – | – | – | – | 0.15 µg/mL | 0.2 µg/mL
